Experimental data published in patent US20190256864A1 (INDIANA UNIVERSITY RESEARCH AND TECHNOLOGY, published 2019).

Columns and labels:
[1] = target: T1, AtPBS1:HA
T1 chain: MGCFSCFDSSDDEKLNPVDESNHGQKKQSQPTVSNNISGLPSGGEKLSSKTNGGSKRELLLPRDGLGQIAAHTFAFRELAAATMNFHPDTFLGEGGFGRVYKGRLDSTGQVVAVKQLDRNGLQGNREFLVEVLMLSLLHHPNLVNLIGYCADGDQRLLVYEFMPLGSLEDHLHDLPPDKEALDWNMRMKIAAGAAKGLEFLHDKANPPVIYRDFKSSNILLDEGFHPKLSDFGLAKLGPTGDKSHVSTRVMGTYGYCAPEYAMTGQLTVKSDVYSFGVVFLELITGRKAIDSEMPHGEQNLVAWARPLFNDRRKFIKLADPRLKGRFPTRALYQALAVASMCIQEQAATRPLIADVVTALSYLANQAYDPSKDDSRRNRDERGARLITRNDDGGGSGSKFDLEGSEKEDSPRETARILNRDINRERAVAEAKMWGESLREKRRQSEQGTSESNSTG

[2] = target: T2, GmPBS1a
T2 chain: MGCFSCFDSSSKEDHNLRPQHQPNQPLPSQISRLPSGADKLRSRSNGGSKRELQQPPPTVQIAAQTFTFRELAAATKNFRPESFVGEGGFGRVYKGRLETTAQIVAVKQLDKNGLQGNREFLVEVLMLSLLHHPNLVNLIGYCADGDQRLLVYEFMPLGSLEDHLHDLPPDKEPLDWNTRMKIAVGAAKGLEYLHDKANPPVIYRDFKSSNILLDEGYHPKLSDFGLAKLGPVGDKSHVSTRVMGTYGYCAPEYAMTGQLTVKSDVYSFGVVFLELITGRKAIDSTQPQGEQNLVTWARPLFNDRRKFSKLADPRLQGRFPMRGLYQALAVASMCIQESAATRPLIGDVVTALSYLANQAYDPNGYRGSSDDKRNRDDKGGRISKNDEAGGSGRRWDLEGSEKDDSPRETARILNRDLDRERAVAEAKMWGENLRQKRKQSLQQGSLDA

[3] = target: T3, GmPBS1b
T3 chain: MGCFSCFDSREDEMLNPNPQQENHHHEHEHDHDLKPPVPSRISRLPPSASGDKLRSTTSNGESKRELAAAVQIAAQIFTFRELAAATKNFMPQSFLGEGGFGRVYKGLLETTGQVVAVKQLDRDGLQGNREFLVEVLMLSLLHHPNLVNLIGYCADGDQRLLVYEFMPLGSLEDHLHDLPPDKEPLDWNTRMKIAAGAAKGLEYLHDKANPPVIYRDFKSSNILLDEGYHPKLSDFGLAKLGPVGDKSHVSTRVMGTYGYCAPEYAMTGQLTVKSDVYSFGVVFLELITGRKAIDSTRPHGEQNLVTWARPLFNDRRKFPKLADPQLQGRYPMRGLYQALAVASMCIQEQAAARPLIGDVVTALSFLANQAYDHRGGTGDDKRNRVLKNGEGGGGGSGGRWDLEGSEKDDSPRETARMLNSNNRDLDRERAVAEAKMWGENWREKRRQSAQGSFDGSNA

[4] = target: T4, GmPBS1c
T4 chain: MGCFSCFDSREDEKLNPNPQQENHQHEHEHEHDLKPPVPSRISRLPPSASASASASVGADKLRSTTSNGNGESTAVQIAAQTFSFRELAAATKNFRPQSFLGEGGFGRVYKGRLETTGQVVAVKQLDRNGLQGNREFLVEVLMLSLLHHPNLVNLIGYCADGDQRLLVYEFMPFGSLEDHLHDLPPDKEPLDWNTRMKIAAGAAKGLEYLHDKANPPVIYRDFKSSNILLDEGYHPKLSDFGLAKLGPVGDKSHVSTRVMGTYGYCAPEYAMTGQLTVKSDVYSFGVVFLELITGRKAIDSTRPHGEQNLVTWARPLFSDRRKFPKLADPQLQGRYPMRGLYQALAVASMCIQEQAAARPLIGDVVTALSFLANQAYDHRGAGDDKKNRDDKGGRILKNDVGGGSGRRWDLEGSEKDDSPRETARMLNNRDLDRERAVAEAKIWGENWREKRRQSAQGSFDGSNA

[5] = target: T5, HvPBS1-1:HA
T5 chain: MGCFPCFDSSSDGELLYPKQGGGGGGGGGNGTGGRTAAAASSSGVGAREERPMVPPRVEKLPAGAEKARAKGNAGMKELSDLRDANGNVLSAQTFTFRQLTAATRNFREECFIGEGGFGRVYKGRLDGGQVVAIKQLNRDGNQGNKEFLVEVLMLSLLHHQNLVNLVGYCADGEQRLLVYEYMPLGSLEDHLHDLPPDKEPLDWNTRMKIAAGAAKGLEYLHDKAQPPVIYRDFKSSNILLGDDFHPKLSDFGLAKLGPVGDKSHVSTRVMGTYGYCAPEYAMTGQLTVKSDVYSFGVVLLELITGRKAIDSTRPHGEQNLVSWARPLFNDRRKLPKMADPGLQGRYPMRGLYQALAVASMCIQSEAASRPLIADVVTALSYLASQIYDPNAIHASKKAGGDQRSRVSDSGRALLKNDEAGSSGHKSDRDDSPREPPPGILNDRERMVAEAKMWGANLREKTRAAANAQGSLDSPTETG

[6] = target: T6, HvPBS1-2:HA
T6 chain: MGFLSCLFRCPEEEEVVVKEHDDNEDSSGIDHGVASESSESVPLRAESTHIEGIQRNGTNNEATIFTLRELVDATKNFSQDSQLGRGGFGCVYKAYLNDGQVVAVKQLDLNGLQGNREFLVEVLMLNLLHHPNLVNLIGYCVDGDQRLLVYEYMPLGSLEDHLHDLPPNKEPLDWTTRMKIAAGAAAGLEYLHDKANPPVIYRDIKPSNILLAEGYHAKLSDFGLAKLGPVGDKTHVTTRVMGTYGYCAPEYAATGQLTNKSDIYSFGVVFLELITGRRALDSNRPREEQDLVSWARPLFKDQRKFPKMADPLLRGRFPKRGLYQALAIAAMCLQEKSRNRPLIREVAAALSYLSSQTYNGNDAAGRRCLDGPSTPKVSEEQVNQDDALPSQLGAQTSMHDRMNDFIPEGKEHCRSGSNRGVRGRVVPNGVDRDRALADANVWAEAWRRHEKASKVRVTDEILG

[7] = target: NbPBS1:HA

B1: AvrPphB:myc (protein)
chain: MKIGTQATSLAVLHNQESHAPQAPIAVRPEPAHAIPEIPLDLAIRPRTRGIHPFLAMTLGDKGCASSSGVSLEDDSHTQVSLSDFSVASRDVNHNNICAGLSTEWLVMSSDGDAESRMDHLDYNGEGQSRGSERHQVYNDALRAALSNDDEAPFFTASTAVIEDAGFSLRREPKTVHASGGSAQLGQTVAHDVAQSGRKHLLSLRFANVQGHAIACSCEGSQFKLFDPNLGEFQSSRSAAPQLIKGLIDHYNSLNYDVACVNEFRVS
- cleavage of the substrate (immunoblot after co-expression in N. benthamiana) [1]: immunoblots showing cleavage of PBS1 proteins from Arabidopsis (At), soybean (Gm) and barley (Hv) by AvrPphB
- cleavage of the substrate [2]: AvrPphB induces cleavage of all three soybean PBS1 proteins
- cleavage of the substrate [3]: AvrPphB induces cleavage of all three soybean PBS1 proteins
- cleavage of the substrate [4]: AvrPphB induces cleavage of all three soybean PBS1 proteins
- cleavage of the substrate (Western blot after transient co-expression in N. benthamiana) [5]: HvPBS1-1:HA and HvPBS1-2:HA are each cleaved by AvrPphB:myc
- cleavage of the substrate (Western blot after transient co-expression in N. benthamiana) [6]: HvPBS1-1:HA and HvPBS1-2:HA are each cleaved by AvrPphB:myc
- cleavage of the substrate (immunoblot after transient co-expression in N. benthamiana) [7]: Co-expression with AvrPphB:myc, but not the protease inactive mutant, resulted in cleavage of NbPBS1:HA within 6 hours post-transgene expression
